Patent publication US20210054097A1
Changes are numbered by the printed parent chain.

Columns and labels:
Assay in all cases: peptide ELISA
[1] = biological target: T1, FX activation peptide 12-mer … (human)
T1 sequence (peptide, C-terminally conjugated to biotin): DPTENPFDLLDF

[2] = biological target: T2, FX activation peptide 12-mer … (human); remark: listed apart in the source
T2 sequence (peptide, C-terminally conjugated to biotin): LDPTENPFDLLD

[3] = biological target: T3, FX activation peptide 12-mer … (human); remark: listed apart in the source
T3 sequence (peptide, C-terminally conjugated to biotin): LLDFNQTQPERG

[4] = biological target: T4, FX activation peptide 12-mer … (human); remark: listed apart in the source
T4 sequence (peptide, C-terminally conjugated to biotin): FDLLDFNQTQPE

[5] = biological target: T5, FX activation peptide 12-mer … (human); remark: listed apart in the source
T5 sequence (peptide, C-terminally conjugated to biotin): PFDLLDFNQTQP

[6] = biological target: T6, FX activation peptide 12-mer … (human); remark: listed apart in the source
T6 sequence (peptide, C-terminally conjugated to biotin): PTENPFDLLDFN

[7] = biological target: T7, FX activation peptide 12-mer … (human); remark: listed apart in the source
T7 sequence (peptide, C-terminally conjugated to biotin): APDSITWKPYDA

[8] = biological target: T8, FX activation peptide 12-mer … (human); remark: listed apart in the source
T8 sequence (peptide, C-terminally conjugated to biotin): ATSSSGEAPDSI

[9] = biological target: T9, FX activation peptide 12-mer … (human); remark: listed apart in the source
T9 sequence (peptide, C-terminally conjugated to biotin): DAADLDPTENPF

[10] = biological target: T10, FX activation peptide 12-mer … (human); remark: listed apart in the source
T10 sequence (peptide, C-terminally conjugated to biotin): DFNQTQPERGDN

[11] = biological target: T11, FX activation peptide 12-mer … (human); remark: listed apart in the source
T11 sequence (peptide, C-terminally conjugated to biotin): DLDPTENPFDLL

[12] = biological target: T12, FX activation peptide 12-mer … (human); remark: listed apart in the source
T12 sequence (peptide, C-terminally conjugated to biotin): DLLDFNQTQPER

[13] = biological target: T13, FX activation peptide 12-mer … (human); remark: listed apart in the source
T13 sequence (peptide, C-terminally conjugated to biotin): DSITWKPYDAAD

[14] = biological target: T14, FX activation peptide 12-mer … (human); remark: listed apart in the source
T14 sequence (peptide, C-terminally conjugated to biotin): EAPDSITWKPYD

[15] = biological target: T15, FX activation peptide 12-mer … (human); remark: listed apart in the source
T15 sequence (peptide, C-terminally conjugated to biotin): ENPFDLLDFNQT

[16] = biological target: T16, FX activation peptide 12-mer … (human); remark: listed apart in the source
T16 sequence (peptide, C-terminally conjugated to biotin): FNQTQPERGDNN

[17] = biological target: T17, FX activation peptide 12-mer … (human); remark: listed apart in the source
T17 sequence (peptide, C-terminally conjugated to biotin): GEAPDSITWKPY

[18] = biological target: T18, FX activation peptide 12-mer … (human); remark: listed apart in the source
T18 sequence (peptide, C-terminally conjugated to biotin): ITWKPYDAADLD

[19] = biological target: T19, FX activation peptide 12-mer … (human); remark: listed apart in the source
T19 sequence (peptide, C-terminally conjugated to biotin): NPFDLLDFNQTQ

[20] = biological target: T20, FX activation peptide 12-mer … (human); remark: listed apart in the source
T20 sequence (peptide, C-terminally conjugated to biotin): NQTQPERGDNNL

[21] = biological target: T21, FX activation peptide 12-mer … (human); remark: listed apart in the source
T21 sequence (peptide, C-terminally conjugated to biotin): PDSITWKPYDAA

[22] = biological target: T22, FX activation peptide 12-mer … (human); remark: listed apart in the source
T22 sequence (peptide, C-terminally conjugated to biotin): PYDAADLDPTEN

[23] = biological target: T23, FX activation peptide 12-mer … (human); remark: listed apart in the source
T23 sequence (peptide, C-terminally conjugated to biotin): SGEAPDSITWKP

[24] = biological target: T24, FX activation peptide 12-mer … (human); remark: listed apart in the source
T24 sequence (peptide, C-terminally conjugated to biotin): SITWKPYDAADL

[25] = biological target: T25, FX activation peptide 12-mer … (human); remark: listed apart in the source
T25 sequence (peptide, C-terminally conjugated to biotin): SSGEAPDSITWK

[26] = biological target: T26, FX activation peptide 12-mer … (human); remark: listed apart in the source
T26 sequence (peptide, C-terminally conjugated to biotin): SVAQATSSSGEA

[27] = biological target: T27, FX activation peptide 12-mer … (human); remark: listed apart in the source
T27 sequence (peptide, C-terminally conjugated to biotin): TENPFDLLDFNQ

[28] = biological target: T28, FX activation peptide 12-mer … (human); remark: listed apart in the source
T28 sequence (peptide, C-terminally conjugated to biotin): TSSSGEAPDSIT

[29] = biological target: T29, FX activation peptide 12-mer … (human); remark: listed apart in the source
T29 sequence (peptide, C-terminally conjugated to biotin): TWKPYDAADLDP

[30] = biological target: T30, FX activation peptide 12-mer … (human); remark: listed apart in the source
T30 sequence (peptide, C-terminally conjugated to biotin): VAQATSSSGEAP

[31] = biological target: T31, FX activation peptide 12-mer … (human); remark: listed apart in the source
T31 sequence (peptide, C-terminally conjugated to biotin): YDAADLDPTENP

B1: Nb 729C08 (VHH, not shown: small tags and cut ends)
VHH: EVQLVESGGGVVQPGGSLRLSCAASGFTFSDYAMSWVRQAPGKGLEWVSGITGGGRTYYADSVKGRFTISRDNSKNTLYLQMNSLRPEDTALYYCAAAILTRTRRTYDYWGQGTLVTVSS
With B1 as the binder, how does the ELISA signal relative to background [1] read?
Its ELISA signal relative to background is 1.95.

And the ELISA signal relative to background [2]?
The ELISA signal relative to background was 1.58.

B2: Nb 702C12 (VHH, not shown: small tags and cut ends)
VHH: EVQLVESGGGVVQPGGSLRLSCVASGRTFSRYAMGWFRQAPGKEREFVAAISRRGGSTNYADSVKGRFTISRDNSKNTVYLQMNSLRPEDTALYYCAADYSSGDGYLDYWGQGTLVTVSS
B2 was tested. Which ELISA signal relative to background [3] did it give?
Its ELISA signal relative to background is 1.88.

B3: Nb 729A04 (VHH, not shown: small tags and cut ends)
VHH: EVQLVESGGGVVQPGGSLRLSCAASGFTFSDYAMSWVRQAPGKGLEWVSGITSGGGRTYYADSVKGRFTISRDNSKNTLYLQMNSLRPEDTALYYCAAVRTLGLRGSYDYWGQGTLVTVSS
B3 was tested. Which ELISA signal relative to background [4] did it give?
Its ELISA signal relative to background is 1.58.

And the ELISA signal relative to background [2]?
Its ELISA signal relative to background is 1.91.

And the ELISA signal relative to background [5]?
Its ELISA signal relative to background is 1.41.

B4: Nb 730C03 (VHH, not shown: small tags and cut ends)
VHH: B3 VHH with A23V, G55S, L79V, V99A, R100I, T101L, L102R, L104Y, G106K, S107T
How did the ELISA signal relative to background [1] turn out when B4 was run?
Its ELISA signal relative to background is 1.68.

And the ELISA signal relative to background [6]?
The ELISA signal relative to background was 1.62.

B5: Nb 721E08 (VHH, not shown: small tags and cut ends)
VHH: EVQLVESGGGVVQPGGSLRLSCAASGRTFSTYSMGWFRQAPGKEREFVAAITRRGSRTYYADSVKGRFTISRDNSKNTVYLQMNSLRPEDTALYYCAADRRPADSYLDYWGQGTLVTVSS
With B5 as the binder, how does the ELISA signal relative to background [7] read?
The ELISA signal relative to background was 2.29.

What about the ELISA signal relative to background [8] of the same binder?
The ELISA signal relative to background was 2.27.

And the ELISA signal relative to background [9]?
The ELISA signal relative to background was 2.3.

What about the ELISA signal relative to background [10] of the same binder?
Its ELISA signal relative to background is 2.25.

What about the ELISA signal relative to background [11] of the same binder?
Its ELISA signal relative to background is 2.48.

What about the ELISA signal relative to background [12] of the same binder?
The ELISA signal relative to background was 2.45.

What about the ELISA signal relative to background [1] of the same binder?
The ELISA signal relative to background was 2.27.

And the ELISA signal relative to background [13]?
The ELISA signal relative to background was 2.18.

And the ELISA signal relative to background [14]?
The ELISA signal relative to background was 2.35.

What about the ELISA signal relative to background [15] of the same binder?
Its ELISA signal relative to background is 2.88.

What about the ELISA signal relative to background [4] of the same binder?
The ELISA signal relative to background was 3.01.

What about the ELISA signal relative to background [16] of the same binder?
Its ELISA signal relative to background is 2.16.

And the ELISA signal relative to background [17]?
The ELISA signal relative to background was 2.26.

What about the ELISA signal relative to background [18] of the same binder?
Its ELISA signal relative to background is 2.08.

What about the ELISA signal relative to background [2] of the same binder?
Its ELISA signal relative to background is 2.29.

What about the ELISA signal relative to background [3] of the same binder?
Its ELISA signal relative to background is 2.3.

And the ELISA signal relative to background [19]?
Its ELISA signal relative to background is 2.28.

What about the ELISA signal relative to background [20] of the same binder?
Its ELISA signal relative to background is 2.02.

What about the ELISA signal relative to background [21] of the same binder?
Its ELISA signal relative to background is 2.4.

What about the ELISA signal relative to background [5] of the same binder?
The ELISA signal relative to background was 2.5.

What about the ELISA signal relative to background [6] of the same binder?
Its ELISA signal relative to background is 2.35.

And the ELISA signal relative to background [22]?
Its ELISA signal relative to background is 2.05.

What about the ELISA signal relative to background [23] of the same binder?
Its ELISA signal relative to background is 2.15.

And the ELISA signal relative to background [24]?
Its ELISA signal relative to background is 2.28.

And the ELISA signal relative to background [25]?
Its ELISA signal relative to background is 2.01.

What about the ELISA signal relative to background [26] of the same binder?
Its ELISA signal relative to background is 2.25.

And the ELISA signal relative to background [27]?
The ELISA signal relative to background was 2.54.

And the ELISA signal relative to background [28]?
The ELISA signal relative to background was 2.2.

And the ELISA signal relative to background [29]?
Its ELISA signal relative to background is 2.26.

What about the ELISA signal relative to background [30] of the same binder?
Its ELISA signal relative to background is 2.13.

And the ELISA signal relative to background [31]?
The ELISA signal relative to background was 2.21.

B6: Nb 701C06 (VHH, not shown: small tags and cut ends)
VHH: B5 VHH with S33A, T52S, S56G, R100A, R101T, P102A, A103R, S105G, Y106L
B6 was tested. Which ELISA signal relative to background [1] did it give?
Its ELISA signal relative to background is 1.51.

What about the ELISA signal relative to background [15] of the same binder?
The ELISA signal relative to background was 1.56.

And the ELISA signal relative to background [4]?
Its ELISA signal relative to background is 1.41.

And the ELISA signal relative to background [19]?
Its ELISA signal relative to background is 1.29.

What about the ELISA signal relative to background [5] of the same binder?
The ELISA signal relative to background was 1.5.

What about the ELISA signal relative to background [6] of the same binder?
Its ELISA signal relative to background is 1.61.

And the ELISA signal relative to background [27]?
Its ELISA signal relative to background is 1.74.

B7: Nb 701D07 (VHH, not shown: small tags and cut ends)
VHH: B5 VHH with R27G, F29L, T31R, S33A, R100L, R101A, A103G, S105Y, Y106A
With B7 as the binder, how does the ELISA signal relative to background [1] read?
The ELISA signal relative to background was 1.39.

And the ELISA signal relative to background [15]?
The ELISA signal relative to background was 1.27.

What about the ELISA signal relative to background [19] of the same binder?
The ELISA signal relative to background was 0.96.

What about the ELISA signal relative to background [5] of the same binder?
Its ELISA signal relative to background is 1.13.

What about the ELISA signal relative to background [6] of the same binder?
The ELISA signal relative to background was 1.29.

And the ELISA signal relative to background [27]?
Its ELISA signal relative to background is 1.44.
